The data set is described as follows: soluble on expression in E. coli; label from the status in PepcDB or PDB records.
Regarding “MTADKLVFFVNGRKVVEKNADPETTLLAYLRRKLGLSGTKLGCGEGGCGACTVMLSKYDRLQNKIVHFSANACLAPICSLHHVAVTTVEGIGSTKTRLHPVQERIAKSHGSQCGFCTPGIVMSMYTLLRNQPEPTMEEIENAFQGNLCRCTGYRPILQGFRTFARDGGCCGGDGNNPNCCMNQKKDHSVSLSPSLFKPEEFTPLDPTQEPIFPPELLRLKDTPRKQLRFEGERVTWIQASTLKELLDLKAQHPDAKLVVGNTEIGIEMKFKNMLFPMIVCPAWIPELNSVEHGPDGISFGAACPLSIVEKTLVDAVAKLPAQKTEVFRGVLEQLRWFAGKQVKSVASVGGNIITASPISDLNPVFMASGAKLTLVSRGTRRTVQMDHTFFPGYRKTLLSPEEILLSIEIPYSREGEYFSAFKQASRREDDIAKVTSGMRVLFKPGTTEVQELALCYGGMANRTISALKTTQRQLSKLWKEELLQDVCAGLAEELHLPPDAPGGMVDFRCTLTLSFFFKFYLTVLQKLGQENLEDKCGKLDPTFASATLLFQKDPPADVQLFQEVPKGQSEEDMVGRPLPHLAADMQASGEAVYCDDIPRYENELSLRLVTSTRAHAKIKSIDTSEAKKVPGFVCFISADDVPGSNITGICNDETVFAKDKVTCVGHIIGAVVADTPEHTQRAAQGVKITYEELPAIITIEDAIKNNSFYGPELKIEKGDLKKGFSEADNVVSGEIYIGGQEHFYLETHCTIAVPKGEAGEMELFVSTQNTMKTQSFVAKMLGVPANRIVVRVKRMGGGFGGKVTRSTVVSTAVALAAYKTGRPVRCMLDRDEDMLITGGRHPFLARYKVGFMKTGTVVALEVDHFSNVGNTQDLSQSIMERALFHMDNCYKIPNIRGTGRLCKTNLPSNTAFRGFGGPQGMLIAECWMSEVAVTCGMPAEEVRRKNLYKEGDLTHFNQKLEGFTLPRCWEECLASSQYHARKSEVDKFNKENCWKKRGLCIIPTKFGISFTVPFLNQAGALLHVYTDGSVLLTHGGTEMGQGLHTKMVQVASRALKIPTSKIYISETSTNTVPNTSPTAASVSADLNGQAVYAACQTILKRLEPYKKKNPSGSWEDWVTAAYMDTVSLSATGFYRTPNLGYSFETNSGNPFHYFSYGVACSEVEIDCLTGDHKNLRTDIVMDVGSSLNPAIDIGQVEGAFVQGLGLFTLEELHYSPEGSLHTRGPSTYKIPAFGSIPIEFRVSLLRDCPNKKAIYASKAVGEPPLFLAASIFFAIKDAIRAARAQHTGNNVKELFRLDSPATPEKIRNACVDKFTTLCVTGVPENCKPWSVRV”, the “soluble on expression in E. coli” value was “soluble”.

With “MTAENIVVVAVDGSEASQNAVRWAANTANKRGVPLRLAASYTMPQFLYAEGMVPPQELFDELQSETMDMIEAARVVAHEVAPDIKIGYVIAEGSPIDMLLDMSSDVTMIVMGSRGLGGLSGMVMGSVSAAVVSHADCPVVVVRSDNHVTETNKYGPVVVGVDGSDVSQRATEFAFEEAQARGAKLVAIHTWMDMQVQASLAGLAAAQQEWEIIEKEQTTLLKDRLQPLLERFPDVEVEMVITRDRPVRALEDCAHNAQLLVVGSHGRGGFRGMLLGSTSRALLQSAPCPMVVVRPNEKEN”, the “soluble on expression in E. coli” value is listed as “not soluble”.

As for “MTAESGGRDWTGADLAVVVGDYVAQLEKVLAGKPVDRAAHDRTVRFVTGKADGPISWKQGEISAVLSLIGVPILKDQPPRWAYDNALLDAVEEQLAAKPALLAAAVRPAALFTAPSAVPLIEAAPPKPMPMTQRLIQAIQRFDMGSREADDRFLKGLGIASIVAHEARRLSDRGRPDLAGAIRPARGGDPEGCDVISFGLDEIPRLIVVKTTLAGEVAPFGLSQAEYELSRAQPHAFRIRRVYDLLGEARFYRLKPPFGLEHHHHHH”, the “soluble on expression in E. coli” value is “not soluble”.

In the case of “MTAIPASARIVLDTEIPARVPWSAIIRKGQTLRIVDSHGQQAVDTLFYAADDHGERYSGQDTLRAQGSAYVTTGTRIMSTEGRTMLRMVADSCGLHDTSAGACSCESNTVRFGHQTKYLHACRENFVLEAAKHGLSKRDIVPNLNFFMNVPLDPDGNFTVVDGVSKPGDYVEMVAEMDVLCLISNCPQVNNPCNGFFPTPIQVVIYEAGEDLEHHHHHH”, the “soluble on expression in E. coli” value is reported as “soluble”.

As to “MTALITQFWQQVETALKTANPQEKCRLVNDLYDNLLPQIQLIKLEDFPEIVPQDNIAAFPEKPLLVAPKDVPKRSFATEEGYAATLHAIAHIEFNAINLGLDAAWRFGRNAQEELGEGLAFVKDWLRVAREESTHFSLVNEHLKTLGYQYGDFEAHAGLWEMAQATAHDIWERMALVPRVLEARGLDATPVLQEKIAQRKDFAAVNILDIILRDEIGHVYIGNHWYHALSKKRGLDAMKCFTELLHKYRIVIFKGVINTDARIQAGFTQHELDWIYEVEQTLKSYIKKLEHHHHHH”, the “soluble on expression in E. coli” value is “soluble”.

In the case of “MTANRQQYQVESVKESNLEEIVQFLIDNFAQTEAILASLKIDDDKICLKELTVMLRDLVQDSLQCSSTCVIRDVTTRQIDGIALACKTSIFDKQIDRLCAYEFREQRVRDAVEFLKYVFNKLDVMYYLNEHRLYKPVFVALVCVRKELWGRGIGTTLMNHVKSAARTDSSDGLISLCSNERGHKLMKTYCPTDFAAVRYDAFKGEHLRPPIVMRPPETFHSVYAMLSKFN”, the “soluble on expression in E. coli” value is recorded as “soluble”.

For the sequence “MTARAIIIGAPRSGSGKTSVTIGLLRAFARRGVKVRGIKTGPDYIDPGFHAFATGTPGLNLDSWAMQPDLLRHLFSQQTEDAELILIESAMGLFDGIPVAENRTGSAADLARLFRIPVLLVLDVSGQSQTAATIAHGFAHYDPDVTMGAVVLNRAGSERHRTLCTEAIEKIGLPVVGCVLRDPSLILPERHLGLVQASEHPEIDPHIDRLADAMEKSIDLDTLFSLAAPVDMPCGSVAAAIAPPGQRIALAEDAAFTFLYPHLRRHWRAAGAEIVPFSPLADEAPDESCDICWLPGGYPELFAGKLADAVGFKAGITRFAETKPVHGECGGYMVLGERLEDAEGVIHAMTGLLSHATSFATRKMNLGYRQATIAADSPLGMAGDVLRGHEFHYARVIDPGRDQPFAHMADGQGRPLGPSGGRRGFVSGTFFHAIAKGGLEHHHHHH”, the “soluble on expression in E. coli” value is “not soluble”.

Take “MTARAVRGTKDLFGKELRMHQRIVATARKVLEAAGALELVTPIFEETQVFEKGVGAATDIVRKEMFTFQDRGGRSLTLRPEGTAAMVRAYLEHGMKVWPQPVRLWMAGPMFRAERPQKGRYRQFHQVNYEALGSENPILDAEAVVLLYECLKELGLRRLKVKLSSVGDPEDRARYNAYLREVLSPHREALSEDSKERLELNPMRILDSKSERDQALLKELGVRPMLDFLGEEARAHLKEVERHLERLSVPYELEPALVRGLDYYVRTAFEVHHEEIGAQSALGGGGRYDGLSELLGGPRVPGVGFAFGVERVALALEAEGFGLPEEKGPDLYLIPLTEEAVAEAFYLAEALRPRLRAEYALAPRKPAKGLEEALKRGAAFAGFLGEDELRAGEVTLKRLATGEQVRLSREEVPGYLLQALG”: the “soluble on expression in E. coli” value is “soluble”.

As for “MTARPYEPPPDYPMIEQRWPTTVRNSSIHPHVSSAHPSYRSHSIDAAVNRSSSACFHSPHRPSFPSRGLQKYDYPICGVSPSRHLSYNHFYNQSAAEIEEMLRTRQFPEIAGIYGNDEQPSLRRFTRYNQSINSRAVPPPAPPNPPKMEKHMSHDTSGRGSIFSKSSKKPLFFMGNWTFRDRNKSARPSISEALREERPQSMNLSDIKPATRSKSGEVLGPRNHIHIESITEFPRNIETRVPVKIERSSMVRRKPSNMGGSTEVSITSSSPSPSSSSSTSTGEFKTTITVDDDHQPTAVMRPKKESDTRGTLNNNRYSFQSCVQLRKSCPDLDSTAMSNMEQHRVSKKRTRRAKEKMSQAAWKRKTVKEWSLDDVLLWLQSAQMDDVAGLLIGYDLRGEDLLQWNDQTLAQLGVSNPEIRKKLLDDLSKIIENGPEPAQEDIRNNHRTLFDIVKQTSYDQVLAVETPLTTRDITVTHGRLGCLQITKVNGANLPLKEHDCLLEINERAGEQFKSALMLTKLISDSNGAAIRFVVLRRKTNLVVEESQQKESSSSGISSSPQTPTE”, the “soluble on expression in E. coli” value is “not soluble”.

“MTARTITDVITRPLPPLPLTAAASAEVLPDWAQPARRHPAAQPWPENLTRMAVGVVDSTGATGWFGPVSATVARMVFDQVAPAVIGRELAAWRAMASLAPHGRHRQGAHLRLAVSAVELAAWDLRSHATGVPVGALLAGERRERIPVYATALGIDIDHPLAPDIAAWLVDEGFWAQKWGLPGAARGETPRADAARLRRLREAAGERARIGVDVGGRWPADYARQMLPVLAEAGVCWVEEPGPISDADLARHGLARAAGEHDYEPTDQLRTLGGDIQIWQPDPTWCGGLAHTLSMVELAARLNIRSLPHGSGLAAALALAASAPAAAVPAIEYHLTLEPLRQDHQLDPLVPAAGHLDARTAAGLTSGYRFGEGDAGAAA”: the “soluble on expression in E. coli” value is “soluble”.

The values above are taken from the DeepSol protein solubility set.
